Reference: the DeepSol protein solubility set

Assay: soluble on expression in E. coli; label from the status in PepcDB or PDB records

Sequence	soluble on expression in E. coli
MTASKIPIKKVCEHCKQEFIALKTTTKYCSHRCNSRAYKAQKREERVRRTELSEQEKKVSDIIDKPYLSISEAGRLLGISRHTIYRYIYSGNLKAYNLSSQRSIVKREDIERMLAERPYEKRQPRDAIVITELYTTDEVCDIHNISRSSLFAIAKRENIPRTYNRGKTYWSKRHIDAYFAKQAPASHIEEWCTAVEIQERFDMTLTAVYNFISDHNIPRKKVKGKSYYSTKHVEAAKGVLDKAAPSYYTVREAMEKFGLTRDQLYQYTKRYNVPKLKQGRNVLISQQELDEVLKPPSITR	not soluble
MTASSQAPLKYLQAYPQALQDQVHQLIAQDRLADYLQQRYPAGHQIQSDKALYAYALALKQDHLRNAPAIKKVLFDNRLDLTHRALGLHTKISRVQGGKLKASNEIRVAALFKEAPAEFLKMIVVHELAHFRESDHNKAFYQLCEHMLPGYHQLEFDLRVYLTYNELRASSGKFLEHHHHHH	soluble
MTATAQQLEYLKNSIKSIQDYPKPGILFRDVTSLLEDPKAYALSIDLLVERYKNAGITKVVGTEARGFLFGAPVALGLGVGFVPVRKPGKLPRETISETYDLEYGTDQLEIHVDAIKPGDKVLVVDDLLATGGTIEATVKLIRRLGGEVADAAFIINLFDLGGEQRLEKQGITSYSLVPFPGH	soluble
MTATKQTAQVTAVADGTVVTPKGFQAAGVHAGLRYSKNDLGVILCDVPASAAAVYTQSHFQAAPLKVTQASLAVEQKLQAVIVNSACANACTGEQGLKDAYEMRELCAKQFGLALHHVAVASTGVIGEYLPMEKIRAGIEKLVPGATMADAEAFQTAILTTDTVMKRACYQTTVDGKTVTVGGAAKGSGMIHPNMATMLAFITTDANVSSPVLHAALRSITDVSFNQITVDGDTSTNDMVVVMASGLAGNDELTPDHPDWENFYEALRKTCEDLAKQIAKDGEGATKLIEVRVRGAKTDEEAKKIAKQIVGSNLVKTAVYGADANWGRIIGAIGYSDAEVNPDNVDVAIGPIVMLKGSEPQPFSEEEATAYLQQETVVIEVDLHLGDGFGVAWGCDLTYDYVKINASYRT	not soluble
MTAVETKKQYLTVFKEDGIAEIHLHINKSNSYDLEFYKEFNAAIDDIRFDPDIKVVIVMSDVPKFFSAGADINFLRSADPRFKTQFCLFCNETLDKIARSPQVYIACLEGHTVGGGLEMALACDLRFMGDEAGKIGLPEVSLGVLAGTGGTQRLARLIGYSRALDMNITGETITPQEALEIGLVNRVFPQAETRERTREYARKLANSATYAVSNIKLAIMNGKEMPLNVAIRYEGELQNLLFRSEDAKEGLSAFLEKRQPNWKGI	soluble
MTDALEQSVLALEGTVSVLKDSVESLKCANEPSTNLASTMLQTKRVFRLVPEYDVERSKLDLIEEVEPLVRTLGDKLRKSMGRMQRELDTLQQTYELNDLRLKKNISMDDDDALNSPDMGQEYEGRDADDVVMMASSTNEELEELKKLKEKKKQLENKLEILKQK	soluble
MTDESDSTAHVSCIIPVYNDSVGIKNTLRSVVGQEYHGYDVYVVDNGSTDGSRRRVRNCAAESDDIQLLVEDEVQGSYAARKTGVQNAESDVLAFLDADETVDEDWLETALGAMQEQDVDYLGCNVELTCPEDTLVGRYNARTGFPVEEYLEDQNYAPTCALLVRRKVFEDVGPFDARLISGGDREFGDRVHDAGYEQGYAENATVYHPARTSLESLAKKNFRVGRGFCQKQRYYPERYGKPGIPPTPSGPSGGDDGDEPDASLTRLAFTLLSIAMLACRGVGYYYEFVVGEENDDIPAPTSLEHHHHHH	not soluble
MTDGTPTTLTDRIEAALRDVRDPNADLSVFDAGFVENIDAADGEVTIEADLTALDGQTSTQVVQAMLHAVDDVDGVDSVHVERTTPTGEGNAGVESFDRVVAVASAKGGVGKSTVATHLACALAADNDVALFDADIHGPNVPELLDVSGPVHSSEEGDPLPVRAGDMDVMSVGLMESGAPLAWRGAMAHDALNDLFENTAWRNDDVLVLDLPPGTGDVVLTTLQEVPVDGVVVVTTPFHASVSDTSRTVELFRDNDVPVLGTVVNMAEYVCDCCGEPNDLFTGDALGDLDAEVLAELPFSHDLQGTPAPGSVPDAVSSLGDAVESALDTAGEVGVDPTADIRDLQPQERKDRVRERFTALDSGEPFVLVSDRDPTPVGQFLGRLAEAPREAFDPFEVRRETPEAWVLETAKPLEHHHHHH	soluble
MTDHLRGFYKAEFETARKKAHGVIFLHDGKIQGGDSTFLYSGAYSQSGLTVAGNLRGVRYSSDHSRLSVFGIEPFEITFDGVAKDGYVTIEGYAHETPSLPLKAILTRVDD	not soluble
MTDLELQQLVATISMHDFHRPFQHRAYFNARLRTTGGRYQLASHDIDINPKMLTDFDEATLIGVIKHELCHYHLHLTKRGYRHRDADFKRLLAQVGGSRYAPAPKQATARPYRYIYECQRCGRRYYRKRRMDTRRYTCGRCQGPIKLVLEHHHHHH	soluble
MTDLFASGDNSSNSFDDSNDEIARKNETAFKYTTIFHTNLSEKLYHELCALAFGEFDIPQGQISPLMWTRLHEIYSEVEMQTRKLPAGSNYSASSQKYANEAVQIASVLSIYTALAHEYDETVEVSLLSKLVVEDVEFRRIYALLLWSEKAISEQQYEKGLGDKVRKLEGIKSSRINSMMALKRPTFGAANAPKDASLDPDAPGTKEDQALEQMAMNVFFQLIRSGETSKAANLAIDLGMGAIGAQLQLHSMLRNPLDIPLEASKQNFGEYKRSRRAKYYQMTQKLIEQSQGSEDDAYWMLISAIRGNIQPMLKAGKSVIEKVWAYANSAVLARILAAEGAMTQETISTLFNVPLTSKSILDELRSEADRTKEVYILLRVIDDMLNDDIEDLYKFANETVGEFVPNDKNCQVNMLALDIFFHLVAVSYASGFEPNDDGNAVIILGFDDLRARSGTSSHKKMAAFYSRFLPEDMKLPEIVETMKAVDSDEEREILAESLKQSDIDFGRCACTLIEQIRKDDKTKVVTLEEQIDHWHWLLIGGEETALAALEECNRLVRKVMLSTPIDESVIRQIIRKALHFEVPKLLSQAVENEATVLSLITDGTLFEQKPGSQLAINKIEHAALEFYGLCSFVDVNNFMITIALKLGLMFKYTPITDDELSMIGGVKRLDNTTAADWEASLRVRARAEQTLREEVLKKRAAEHNTRVGMVQQHLDTVLPMLRGLVNNIGVRPEYFLSPRANGDPMRVHRKEIQEIRNLFLPQFFILLAQAAVRLDDTTNFNDFFTSFNNDLGLDQEWMVFIKAFYAELNLKVE	soluble
MTDLSRSQFGFRKARSTVDVVNIVVKVAAQAIEGIMVTLDIRNVFNTARWDRIIKALIGFGELAYLVRIIRSYFSKRVLLCESSEGVFSPQVTGGVPKGSVLGQLLWNAMKTGYFAYHWLRGTNRRLRGRRGFARCLEHHHHHH	not soluble
MTDNTAVRRRYEKSFTERPGFTEDEIEEIREAFNLLDTDGTGTIDPKEIKCAMQSLGLDAKNPMIFRMIADLEKDGYSSIDFEEFMEVITSKLGNKDTREGIQRIFNLFDDDKTGSISLKNLKRVAKELGETLTDEELRDMIDRADSKGEGEISFEDFYTIMTKKSFL	not soluble
MTDQPISLEEIRLRLNELDDQLLSLLSERRKLSIEVAKSKVQTSKPVRDAVREQQLLVKLISNGRDKYELDAQYITKLFHTIIEDSVLLQQGYLQNLVNPQQSRKPLARVAFLGAKGSYSHLASREYFSRKNTELIELNCEHFKEVTRTVESGHADYGVLPIENTSSGSINEVYDLLQHTTLYIVGELTQPIEHCLVATKDIRLEDIKTLYSHPQPHQQCSEFLSRMKGVKLESCASTADAMQKVQEMNRDDVAAIGNASSGKLYGLQAIQGNIANQTENHTRFIVVARKPVEVSTQIPAKTTLIMSTSQEAGSLVETLLVLQRYGINMTKLESRPIMGNPWEEMFYVDLEAHLGSTEMQQALQELTKITKHLKVLGCYPSENIKPTQVKLS	not soluble
